# According to FireProtDB (doi:10.1016/0022-2836(82)90184-x):
# B1: Tryptophan synthase alpha chain wild type, P0A877 (protein)
# chain: MERYESLFAQLKERKEGAFVPFVTLGDPGIEQSLKIIDTLIEAGADALELGIPFSDPLADGPTIQNATLRAFAAGVTPAQCFEMLALIRQKHPTIPIGLLMYANLVFNKGIDEFYAQCEKVGVDSVLVADVPVEESAPFRQAALRHNVAPIFICPPNADDDLLRQIASYGRGYTYLLSRAGVTGAENRAALPLNHLVAKLKEYNAAPPLQGFGISAPDQVKAAIDAGAAGAISGSAIVKIIEQHINEPEKMLAALKVFVQPMKAATRS
# Conditions: Escherichia coli (strain K12), 25 °C, GdnHCl, CD, reversible: yes, whole UniProt chain shown
protein,measurement,setting,value
B1,unfolding free energy,"pH 5.5, acetate 0.05 M",5.2 kcal/mol
same,unfolding free energy,"pH 7, Potassium phosphate 0.01 M",8.8 kcal/mol
same,unfolding free energy,"pH 9, Tris-HCl 0.025 M",4.9 kcal/mol
